According to the DeepSol protein solubility set:

assay: soluble on expression in E. coli; label from the status in PepcDB or PDB records

| Sequence | soluble on expression in E. coli |
| --- | --- |
| IDGDSITNKQIKKFWRQKQIIEEDHLYSAIKAAARVRARNLSDEDYKRFEESLDMEDLETEDHQGLKDWWTKSKYAYLNQPALGSADSLKRKRFSTYTPNCFSFKPCNPLYATSLNVF | not soluble |
| YGAWAAQELQAKLAEIGAPIQGNREELVERLQSYTRQTGIVLNRP | soluble |
| MSLFTNLVKMGKKLKNLTKKYQLNKEKIEKFITVRKRLTFLGERPSVVEKPVVVKFGGTSVRYAFEEALELVANLNENTRTIVVVSALAGVTDCLLRLANGDMSALLEIEEIHEELSQELDVQLDHLMYQLHKTLNSKSSFPSKEAFVDEIASFGERFSAELFSEGLKILGINAKAVDSKDILFAKGDYGNAEVDFKKSVYGAGILYRMLRRGIVPVVTGYYGNLNGFRATFGRGGSDYSATSIARLVNAKATLIMSDVEGIYTADPKLVPSAKLIHYISYREAKIAAKLGMKALHHRAIDPVEGRIPVILGKTRDLKFGTLISHKSQGIPVVVHKLIEDHAEVSVVSTRRSFSLPYEVYEEGDFYFKIKIPKEQFLEVLKDIHRRVVENESLRPSYDSELWAWVEGHHHHHH | not soluble |
| PLPIPPPPPDIQPLERYWAAHQQLRETDIPQLSQASRLSTQQVLDWFDSRLPQPAEV | soluble |
| MGKKELKRGLVVDREAQMIGVYLFEDGKTYRGIPRGKVLKKTKINAGDYVWGEVVDPNTFAIEEVEERKNLLIRPKVANVDRVIIVETLKMPEFNNYLLDNMLVVYEYFKVEPVIVFNKIDLLNEEEKKELERWIAFTGMRATTFSRLEHHHHHH | not soluble |
| MSTNEITKRLPNLTSRRALLLYSLPVLVAIGVSHSLKESSLTKTIALNLPESQVVERILDATTAEVVTPPNFEYQIQAGDNLSTIFSQLGFGYSSLMKVMETDLNYLALDTLKPGNTLRFWRNDATGELEKMELQFSIADKVVYQLNSDGGYDFTDISIPGVWRQEPLVGVIQGSFSSSANRLGLSSAEISQVVSLLKEQVNFGRDLRAGDRFEVVRRSQTINGVSTGKNEIEAIKIYNRGREITAYLHTDGQFYNAKGESLQRAFQRYPVSRSWRISSGFNPNRLHPVTGRVAP | not soluble |
| MRRRSNRQYVDLSYFRETADALLFDVETNSREFTNEINTVKEEKAKWDERTPQGYTAKPISFEGADIWCSWICTVPGPRGSPWEGGEYEVSVNFHKWPIIPPICEFKTPLHHPNVDLRGSIYLKMLEQEHWSSETSLKKLLREISNLLATPDLTQAANIEAWMEYENQRENYEAKARAYAWTVNPNAVGYMEVSENSGIQRETAKAKLAVQNGAMESDEDDDDLPIDIEN | not soluble |
| MCMMSKVVSKMKSFLGFDEFEDEDEVMEEEEVMEEEESFAPVLSSKKNGKVVNIHTANTAKLMITKPLVYDDATEICTALKNRKIVVINTTSLELRTAQRLIDFVGGACYALCGELQEVEKGVFIVSPSNVEVSNELKSELSNKGMFNWASKLEHHHHHH | not soluble |
| MDQLEHLSLVSKVLSEVENHFGVVEKDVAEFVIHLAQENPTFDKLKKALDSQGLGDQFDDSLTATILRIVQSMTAVKKKNKKGGDSKEDIKDSHKITLISDAKEEIKARLPALAMANTAKEKEDNEDDLMAQLEKMEGRYESEKRLQKESDSKRNRSRSRSRSRDRKRRRSRSGDRDRRRRSRSREDRRDRDRRDRDRDRDRGRGDRRGDDRQRDRRDRRDDGGARKSEVAEIGKIYDGRVNSIQSFGAFITLEGFRQKQEGLVHISQIRNERVQTVADVLKRGENVKVKVNKIENGKISLSMKEVDQNSGEDLNPRETDLNPDAIGVRPRTPPASTSSWMNPEASGVGQGPSTSIGGGKARVRISTPERWELRQMQGAGVLTATDMPDFDEEMGVLRNYDDESDGEDIEIELVEDEPDFLRGYGKGGAEIEPVKVVKNPDGSLAQAALMQGALSKERKETKIQAQRERDMDTQKGFSSNARILDPMSGNQSTAWSADESKDRNNKMKEMPEWLKHVTAGGKATYGRRTNLSMVEQRESLPIFALKKNLMEAMIDNQILVVVGETGSGKTTQMTQYAIEAGLGRRGKIGCTQPRRVAAMSVAKRVAEEYGCKLGTDVGYTIRFEDCTSQDTIIKYMTDGMLLRECLIDPDLSGYSLIMLDEAHERTIHTDVLFGLLKAAARKRPELKLIITSATLDSVKFSEYFLEAPIFTIPGRTFPVEILYTREPESDYLEAAHITVMQIHLTEPPGDVLVFLTGQEEIDTSCEVLYERMKSMGPDVPELIILPVYGALPSEMQTRIFDPAPAGKRKVVIATNIAETSLTIDGIFYVVDPGFVKQKIYNPKSGMDSLVVTPISQAAAKQRSGRAGRTGPGKCYRLYTERAFRDEMLPTPVPEIQRTNLASTLLQLKAMGINNLIDFDFMDAPPLDSMITALNTLHTLSALDGDGLLTKLGRRMAEFPLEPSLSKLLIMSVDLGCSEEVLTIVAMLNVQNIFYRPKEKQDHADQKKAKFHQPEGDHLTLLAVYNSWKNHHFSQPWCFENFIQVRSMKRAQDIRKQLLGIMDRHKLLMVSCGRDVSRVQKAICSGFFRNAAKRDPQEGYRTLTDGQNVYIHPSSACFQQQPEWVVYHELVMTTKEYMREVTAIDPKWLVEFAPSFFKIGDSTKLSTFKRNQKIDPLFDKYADANAWRITRVKKRIYNPNK | soluble |
| WRKDIVLPKDQAKGVRPYNPKFKDSEYFSRYNALINDERLIEFAKKNNYKITFFPHPDIQQQIVDFEKHDYVEFADYNSSYQMLFNSSNIMITDFSSVAFDFAYEKKPVIYYQYEKSYHFKLDYYDYKKMGFGDVLENHNSLVDKVIYYMKNNSRMEDKYRKRVDNFFAYTDKNNRNRIYNAILE | not soluble |
| MQSAIVLGGGMIGVSAALHLRQRGWTVTLVDRREPGRETSYGNAGMIQAEAVRPYPMPRDLASLLKIATGRTNDVRYSLSSLHLHIEPLLRYWWHSAPKRHREAIDAWARLIAYATAEHDILIREAHADNLIRRAGYRALYRDAAALDLSIKAAEEDQHEFGVNFRVLSGSELAKAEPVLRDDLPGAIHWLDTWTVSDPGALVTAYAELFERLGGRIVLGDAQSLQQTAAGWSVDTDQGRIDAATAVVTLGPWSPDLLYKFGYRIPLVRKRGYHMHYSGGASLDLPLIDKAGGYAMGPMAKGIRITTGAELTSPDALATPVQLASAEASARELIDLGKRVEPDPWFGTRPCTPDMLPVLGPAPLHPGLWMNFGHGHQGFTLGPATGRLLAEMMSGETPAIDPTPYRPERFLEHHHHHH | soluble |
| IGVFLKDKQKVLVVEESEPFIEEQIRIEGNVYGKKTGHLPYGQVTSKDIDFALEHIEEEKVSRPADPGLIESRKKSRASICEDCPYLPLYNFLRISGVRVAGDMGCSVRSAPEPLSAVDVSFALGSAISVACGFERKGIAVIGDFALAHSGILGLLNAVSEGHEVLVLVLQNEVAAMTGGQKVPDLRKVIEAIVPDVSVFDMDGRKEKEQASGSELSDLITEKLALPGISVIFI | not soluble |
| MGSDKIHHHHHHMRDFLKSAFGRSKPKQLRILPQDVTIEIGQGQTLLEAALANGIAYPHDCTVGTCASCKTRLKQGRVREATPFGYTLSKDELDAGYILACQAFPKDELTVVEIDSSAGDLMPAEKYTANIIATEPLTHDILRVTVQTDRAVSYAAGQYANLRKAGGGRARSYSFANAPQRKGRTLLEFYIRKVPGGEFTESLFGGELKGVSLEMEAPLGTFHLRAGDSHMVCIAGGSGLAPLVSILEHARGNRIKRDCTLLFGARTQADLYQLDAIGSIASNWQGDFRFIPVLSDEPLDSDWKGARGLVTDHIAPGFCEGGEGYLCGPPLMIDAAIASLAKHGIPLEKVFYDKFTDSRDR | not soluble |
| PQRSQRESRHLFIREAKKLCQKEFKRWFILAADVNPLMKYFKDRELPIPTLYLMGDRDYMFIQPVKEMVAAHKLSILREIPNCGHVCNVERPEDFNQHSIEFIKQQSIVA | not soluble |
| MGSDKIHHHHHHMNRMNDALELVKKLRTFLPAESVLHETEDVRPYECDGLSAYRQTPMIVALPRTEDEVAGILKICDALKIPVVARGAGTGLSGGALPHPQGVLLSLAKLKNILEIDPAARTARVQPGVRNLAISEAAAPYGLYYAPDPSSQIACSIGGNVAENSGGVHCLKYGLTVHNILKLRVLTIEGELLEMGADGLDAPGYDLLALMTGSEGMLGIVTEVTVKLTPRPEKAQVVLASFDDIRDAGNAVANVIGAGIIPAGMEMMDKITTGAVEEYVHAGYNVEAAAILLCESDGAEEEVAEEIERINEIMRQSGATEVRISRDEAERARFWAGRKAAFPAAGRVSPDYYCMDGTIPRKNLASVLTGIEALSAEYGLRCMNVFHAGDGNLHPLILYDANHPGELELTEEFGAKILRMCIEAGGTITGEHGVGIEKINQMCSQFKTGELEMFHAVKAAFDPASLLNPGKAIPTLRRCAEQGAMHVHRGKEKFPELPRF | not soluble |
| MSLIVVTGGAGFIGSHVVDKLSESNEIVVIDNLSSGNEEFVNEAARLVKADLAADDIKDYLKGAEEVWHIAANPDVRIGAENPDEIYRNNVLATYRLLEAMRKAGVSRIVFTSTSTVYGEAKVIPTPEDYPTHPISLYGASKLACEALIESYCHTFDMQAWIYRFANVIGRRSTHGVIYDFIMKLKRNPEELEILGNGEQNKSYIYISDCVDAMLFGLRGDERVNIFNIGSEDQIKVKRIAEIVCEELGLSPRFRFTGGDRGWKGDVPVMLLSIEKLKRLGWKPRYNSEEAVRMAVRDLVEDLDEEGHHHHHH | soluble |
| SLIDNPHAQDYWPNRGQMDVQGLAVKYTEAGRAVLSDISFSVEGGLSMGLLGRTGSGKSTLLSALLRLASTDGEISIDGISWNSVPLEKWRKAFGVVPQKVFILTGTFRMNLDPHGRYSDEELWRVADQVGLKSVIEQFPDRLDFQLENGGSVLSHGHKQLMCLARSILSKARILLLDEPSAYLDTITLQVLRKTLKHAFSDCTVILSEHKVEPLLECDSFLVIEGSSVKSYDSIQKLLNEMSDLKQAVSAAD | soluble |
| MGSDKIHHHHHHMTPDSSPSSVDDPLFESGHRIFANKDLLKIGHVPEADRIVGRDEEISKLAKRLNGAVHGYSPENVMIYGKTGTGKSLVSKHVCQRAQNAAQDGVEIGTAYIDCAEDNTETQAISSLAAKLNDESSTGISVPHTGLSTSKYYKLLWKTLDAQFDSVIIILDEIDLMNDDSVLMKLSRAEEAGKIDCSVGVIAISNKIQYVDNVNERVKSSFQHKELFFKPYDANQLREIMFNREDAFQDGVLSEDVIPLSAAFAAQEHGDARKAIDILRHAGEVAYEAGAELVTEEHVRQAQQHAEKDRFRELVNGAPTQAKAALLALTELSVNSNDDAFLTSRVYDQYEHICNHLDMDILSVRRFRDILKEQAFLGVVEIEKINKGSAGGIHLQNRLIEDSQVVRETILEDSRMQDWTRE | not soluble |
| MSLATICSLCNKKISIFKMRLKFKDGVVGQSCLSELNLCNFWAFEPGAKEYAESHTIADLKELQTSGKDFTNIQDQYIDDETKKELQKKQEKKQERQEKIEVLKEFKDDGATKFSSYYFDLKKNQILSSGSLTTSWRVIDFSEVLSYQVNRNGHLEQKHHGIARAVTGGIMAGGVGAIVGTTTGENTDYIDHLGLVINLSDGTNFEVKFLKTKTKTNSFTVKTAEGELRSLISIVQSGMNKAQEKAEQEQTKANTIKIESNADPAEEIRKFKKMADEGIISNEEFEAKKKQLLNLQEGHHHHHH | not soluble |
| MERLHLSWEDLLRLVRRLAEALSGEPFDLVLGVARGGLIPTALLAQALGARNILTAAVMFYEGEEALPEPVFLQFPPDVLLFGKRVLVVDDVWDSGRTAFAVKARVRRAGGVPVVATLHFKPGRNRVPDRPDFYAEETAAWVVYPWALEAWPKG | soluble |
